To fix the notation:
B1: RGDLAT (peptide)
peptide: RGDLAT
modifications: not fully specified
notes: Tested as ligand-(PEG)8-K-HyNic conjugated to Cy5-labelled 1170-100B polymer
B2: Guanidinyl-RGDLATLRQL (peptide)
peptide: guanidinyl-RGDLATLRQL
modifications: not fully specified; printed as Guanidinyl-RGDLATLRQL
notes: as for B1
B3: des-amino-… (peptide)
peptide: [Pentanoyl(5-guanidino)]GDLATLRQL
modifications: not fully specified (C-terminus); printed as des-amino-RGDLATLRQL; also: HyNic conjugated to Cy5-labelled 1170-100B polymer
B4: Ac-RGDLATLRQL (peptide)
peptide: Ac-RGDLATLRQL
modifications: not fully specified; printed as Ac-RGDLATLRQL
notes: as for B1
B5: Ac-RGDLAILRQL (peptide)
peptide: Ac-RGDLAILRQL
modifications: not fully specified; printed as Ac-RGDLAILRQL
notes: as for B1
B6: Ac-RGDLAVLRQL (peptide)
peptide: Ac-RGDLAVLRQL
modifications: not fully specified; printed as Ac-RGDLAVLRQL
notes: as for B1
B7: Ac-RGDLALLRQL (peptide)
peptide: Ac-RGDLALLRQL
modifications: not fully specified; printed as Ac-RGDLALLRQL
notes: as for B1
B8: Me-RGDLATLRQL (peptide)
peptide: Me-RGDLATLRQL
modifications: not fully specified; printed as Me-RGDLATLRQL
notes: as for B1
B9: RGDLATL (peptide)
peptide: RGDLATL
modifications: not fully specified
notes: Tested as ligand-(PEG)8-K-HyNic conjugated to Cy5-labelled 1170-100B polymer; also called natural peptide
B10: RGDLATLRQLEEEK-(HyNic) (peptide)
peptide: RGDLATLRQLEEEK(HyNic)
modifications: also: conjugated via HyNic to Cy5-labelled 1170-100B polymer, places HyNic at (1)..(1) as C-terminal
notes: Conjugated to Cy5-labelled 1170-100B polymer; printed with its own K-(HyNic)
B11: RGDLATLRQ (peptide)
peptide: RGDLATLRQ
modifications: not fully specified
notes: as for B1
B12: Dap(guanidino)-GDLATLRQL (peptide)
peptide: [Agp]GDLATLRQL
modifications: not fully specified; printed as Dap(guanidino)-GDLATLRQL
notes: as for B1
B13: MeO-PEG8-RGDLATLRQL (peptide)
peptide: {MeO‑PEG8}-RGDLATLRQL
modifications: not fully specified; printed as MeO-PEG8-RGDLATLRQL
notes: as for B1

Where “and” joins values, the source holds several entries; their conditions need not be identical. Identical values can stand only once. Non-standard residues stand in square brackets, D forms with d. No end group written: not given here. *: point of attachment. MeO‑PEG8 = N-terminal cap, methoxy-PEG with 8 ethylene glycol units; guanidinyl = N-terminal guanidinyl cap, N=C(N)*; Pentanoyl(5-guanidino) = NC(N)=NCCCCC(=O)*; Cha = N[C@@H](CC1CCCCC1)C(=O)O; Cit = NC(=O)NCCC[C@H](N)C(=O)O; Agp = N=C(N)NC[C@H](N)C(=O)O; Abu = CC[C@H](N)C(=O)O; Aib = CC(C)(N)C(=O)O; Sar = CNCC(=O)O

For the first assay, the target named is T1, αvβ6 integrin (human, UniProt P06756 31-1048; P18564 22-788).
T1 construct: whole, on cells; target is the endogenous integrin on αvβ6 positive-control cell lines; also called Integrin alpha-v beta-6
T1 sequence (P06756 31-1048, chain 1 of 2): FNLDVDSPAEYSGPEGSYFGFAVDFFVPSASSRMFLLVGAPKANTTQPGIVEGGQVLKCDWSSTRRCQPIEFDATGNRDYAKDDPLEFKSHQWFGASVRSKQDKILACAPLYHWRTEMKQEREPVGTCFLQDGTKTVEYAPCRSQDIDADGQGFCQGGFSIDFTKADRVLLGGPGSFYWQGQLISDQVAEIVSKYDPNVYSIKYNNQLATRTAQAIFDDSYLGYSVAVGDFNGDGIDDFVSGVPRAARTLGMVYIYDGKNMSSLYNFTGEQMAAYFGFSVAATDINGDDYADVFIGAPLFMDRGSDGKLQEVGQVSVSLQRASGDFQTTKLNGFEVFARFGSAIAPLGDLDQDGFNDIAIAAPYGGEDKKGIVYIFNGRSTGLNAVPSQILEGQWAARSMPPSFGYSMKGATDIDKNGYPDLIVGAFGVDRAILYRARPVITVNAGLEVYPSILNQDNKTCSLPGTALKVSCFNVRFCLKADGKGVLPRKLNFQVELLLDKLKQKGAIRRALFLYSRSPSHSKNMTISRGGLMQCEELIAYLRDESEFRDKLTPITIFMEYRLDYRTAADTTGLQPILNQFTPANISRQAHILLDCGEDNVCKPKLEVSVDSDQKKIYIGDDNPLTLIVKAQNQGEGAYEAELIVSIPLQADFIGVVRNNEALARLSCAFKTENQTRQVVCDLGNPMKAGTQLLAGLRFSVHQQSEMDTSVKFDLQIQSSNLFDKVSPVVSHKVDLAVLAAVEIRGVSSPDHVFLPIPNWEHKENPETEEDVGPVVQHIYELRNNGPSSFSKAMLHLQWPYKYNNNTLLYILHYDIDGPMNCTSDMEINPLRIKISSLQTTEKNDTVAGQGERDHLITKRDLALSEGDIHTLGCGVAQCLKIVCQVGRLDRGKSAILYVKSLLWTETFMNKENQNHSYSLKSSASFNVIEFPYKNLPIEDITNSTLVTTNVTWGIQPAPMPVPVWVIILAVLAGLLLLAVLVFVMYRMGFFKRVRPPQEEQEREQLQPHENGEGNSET
T1 sequence (P18564 22-788, chain 2 of 2): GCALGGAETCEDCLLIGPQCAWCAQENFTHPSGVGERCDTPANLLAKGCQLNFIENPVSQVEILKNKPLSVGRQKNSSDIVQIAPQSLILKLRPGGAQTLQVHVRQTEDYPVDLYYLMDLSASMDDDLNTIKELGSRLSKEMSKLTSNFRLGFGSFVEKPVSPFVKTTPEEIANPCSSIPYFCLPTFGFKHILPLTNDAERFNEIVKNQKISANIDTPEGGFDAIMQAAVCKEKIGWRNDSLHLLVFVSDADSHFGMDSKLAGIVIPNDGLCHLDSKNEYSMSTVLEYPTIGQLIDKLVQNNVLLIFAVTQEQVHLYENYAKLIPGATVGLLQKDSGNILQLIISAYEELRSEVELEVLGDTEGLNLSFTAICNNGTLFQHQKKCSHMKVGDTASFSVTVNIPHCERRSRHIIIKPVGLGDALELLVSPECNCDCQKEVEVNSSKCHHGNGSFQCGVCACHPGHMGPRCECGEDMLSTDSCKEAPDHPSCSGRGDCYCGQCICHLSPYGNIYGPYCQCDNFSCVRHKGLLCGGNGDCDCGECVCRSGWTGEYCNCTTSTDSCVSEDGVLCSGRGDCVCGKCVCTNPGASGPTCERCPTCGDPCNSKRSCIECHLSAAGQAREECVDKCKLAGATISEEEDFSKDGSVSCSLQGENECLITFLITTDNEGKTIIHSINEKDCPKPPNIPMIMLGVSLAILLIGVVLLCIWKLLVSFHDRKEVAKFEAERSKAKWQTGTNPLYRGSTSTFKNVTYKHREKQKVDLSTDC
Briefly: flow cytometry, Cy5-polymer conjugate 5 µg/ml, H2009 cells. The text has this: B. αvβ6 ligand binding (flow cytometric analyses). To assess for specificity of binding of the αvβ6 ligands to the αvβ6 integrin, each αvβ6 ligand or negative control peptide was conjugated to a Cy5-labeled polymer (as described above) and evaluated for binding to cells. […] H2009 (human lung epithelial adenocarcinoma) and CAPAN-2 (human pancreas adenocarcinoma) cells served as the αvβ6 positive-control cell lines. Cells were detached from culturing flasks with Accutase, washed in PBS, and seeded into 5 ml polystyrene round-bottom tubes at 200,000 cells in 200 μl complete media (culturing media with supplements and fetal calf serum). αvβ6 ligand-polymer conjugates or no-ligand-polymer conjugates were added at 5 μg/ml (polymer-Cy5 concentration) to cells, mixed and incubated at 37° C. for 3 h. Incubation at 37° C. facilitated ligand/receptor interaction which may result in static binding to the extracellular cell surface and/or internalized ligand/receptor complexes. The mixture was re-suspended at 1 h intervals. Following a 3 h incubation, cells were washed 2× with 4 ml chilled buffer (PBS-2% FCS) and re-suspended in 200 μl buffer containing 10 μM SYTOX blue stain for live/dead cell gating. Samples were analyzed on a BD Biosciences Canto II cytometer equipped with a violet (405 nm), blue (488 nm) and red (633 nm) lasers.
Viable cells were initially gated as the SYTOX blue negative population on the C detector with the violet laser. These viable cells were then assessed for conjugate binding/uptake with the red laser as the Mean Fluorescence Intensity (MFI) of the Cy5 fluorophore. Data analyses were performed with FlowJo v10.1 software. A specific MFI Ratio (sMFIr) for each αvβ6 ligand was determined by the formula: […]
In the case of Ac-RGDLAAbuNMeLCitAib (peptide), the MFI (specific MFI ratio, sample/no-ligand) was found to be 1.3.
Still for that read-out and setting: to Ac-RGDLAEL[Cit][Aib] belongs 2.4; to Ac-RGDLAFL[Cit][Aib], 2; to Ac-RGDLAGL[Cit][Aib], 3.8.
The same measure, in the same setting: the result for Ac-RGDLAKL[Cit][Aib] reads 3.6; that for Ac-RGDLAPL[Cit][Aib], 2.8; that for Ac-RGDLAQL[Cit][Aib], 3.6.
On the same count and under the same terms, the result for Ac-RGDLATL[Cit]QL reads 3.94; that for Ac-RGDLA[Abu]L, 2.6; that for Ac-RGDLA[Abu]LE[Aib], 1.9.
With Ac-RGDLA[Abu]LF[Aib], the MFI (specific MFI ratio, sample/no-ligand) amounted to 3.6.
On the same count and under the same terms, to Ac-RGDLA[Abu]LG[Aib] belongs 4.
Same read-out and setting: the result for Ac-RGDLA[Abu]LK[Aib] reads 5.4.
The same measure, in the same setting: the result for Ac-RGDLA[Abu]LP[Aib] reads 1.6.
On to Ac-RGDLA[Abu]LQ[Aib], for which the MFI (specific MFI ratio, sample/no-ligand) amounted to 4.4.
With Ac-RGDLA[Abu]LRQL, the MFI (specific MFI ratio, sample/no-ligand) was determined as 6.47.
In the case of Ac-RGDLA[Abu]L[Aib], the MFI (specific MFI ratio, sample/no-ligand) came to 3.2.
Take Ac-RGDLA[Abu]L[Cit]: the MFI (specific MFI ratio, sample/no-ligand) stood at 3.3.
Same read-out and setting: to Ac-RGDLA[Abu]L[Cit]E belongs 4; to Ac-RGDLA[Abu]L[Cit]F, 3.7.
Still for that read-out and setting: to Ac-RGDLA[Abu]L[Cit]G belongs 4.8; to Ac-RGDLA[Abu]L[Cit]K, 5.2.
For Ac-RGDLA[Abu]L[Cit]P, the MFI (specific MFI ratio, sample/no-ligand) was found to be 4.
Take Ac-RGDLA[Abu]L[Cit]Q: the MFI (specific MFI ratio, sample/no-ligand) is 4.4.
The same measure, in the same setting: the result for Ac-RGDLA[Abu]L[Cit][Aib] reads 4.7 and 3.8; that for Ac-RGDLA[Abu]L[Cit][Aib]L, 3.2 and 4.55 and 4.6.
The same measure, in the same setting: to Ac-RGDLE[Abu]L[Cit][Aib] belongs 2.6; to Ac-RGDLF[Abu]L[Cit][Aib], 2.7; to Ac-RGDLG[Abu]L[Cit][Aib], 3.7.
Same read-out and setting: to Ac-RGDLK[Abu]L[Cit][Aib] belongs 3.6; to Ac-RGDLP[Abu]L[Cit][Aib], 1.
On to Ac-RGDLQ[Abu]L[Cit][Aib], for which the MFI (specific MFI ratio, sample/no-ligand) was found to be 3.7.
Same read-out and setting: to Ac-RGDL[Aib]TLRQL belongs 4; to Ac-RGDL[Cha]TLRQL, 5.1.
Still for that read-out and setting: the result for Ac-RGDL[Cha][Abu]L[Cit][Aib] reads 1.6.
With Ac-RGDLβ3-hAAbuLCitAib (peptide), the MFI (specific MFI ratio, sample/no-ligand) is 2.34.
Still for that read-out and setting: to Ac-RGDLβ3-hATLRQL (peptide) belongs 4.5; to Ac-RGDNMeLAAbuLCitAib (peptide), 1; to Ac-RGDαMeLAAbuLCitAib (peptide), 0.8 and 1.
On the same count and under the same terms, the result for Ac-RGαMeDLAAbuLCitAib (peptide) reads 0.9 and 1; that for Ac-R[Sar]DLA[Abu]L[Cit][Aib], 2.6; that for Ac-[Cit]GDLATL[Cit]QL, 0.99.
Same read-out and setting: the result for CH3(CH2)1CO-RGDLAAbuLCitAib (peptide) reads 4.2; that for CH3(CH2)2-RGDLAAbuLCitAib (peptide), 3.9.
Take CH3(CH2)2CO-RGDLAAbuLCitAib (peptide): the MFI (specific MFI ratio, sample/no-ligand) came to 4.3.
The same measure, in the same setting: the result for CH3(CH2)3-RGDLAAbuLCitAib (peptide) reads 4.7.
For the molecule CH3(CH2)3CO-RGDLAAbuLCitAib (peptide), the MFI (specific MFI ratio, sample/no-ligand) turned out to be 4.1.
Same read-out and setting: the result for CH3(CH2)4-RGDLAAbuLCitAib (peptide) reads 4.1.
Still for that read-out and setting: the result for CH3(CH2)4CO-RGDLAAbuLCitAib (peptide) reads 3.9.
The same measure, in the same setting: the result for CH3CH2-RGDLAAbuLCitAib (peptide) reads 4.4.
In the case of “CH3O(CH2CH2O)1CH2CH2CO-RGDLAAbuLCitAib (peptide)”, the MFI (specific MFI ratio, sample/no-ligand) is 3.8.
Same read-out and setting: the result for “CH3O(CH2CH2O)2CH2CH2CO-RGDLAAbuLCitAib (peptide)” reads 3.6; that for “CH3O(CH2CH2O)3CH2CH2CO-RGDLAAbuLCitAib (peptide)”, 3.7.
As to “CH3O(CH2CH2O)5CH2CH2CO-RGDLAAbuLCitAib (peptide)”, the MFI (specific MFI ratio, sample/no-ligand) turned out to be 1.6.
Still for that read-out and setting: to RGDLA[Abu]L[Cit][Aib]L belongs 4.6; to B1, 1.3 ratio; to B2, 4.3 ratio.
Same read-out and setting: to B3 belongs 1.1; to B4, 4.7 ratio.
With B5, the “MFI (specific MFI ratio, sample/no-ligand)” value amounted to 6.22 ratio.
Still for that read-out and setting: to B6 belongs 6.23 ratio; to B7, 6.06 ratio.
On to B8, for which the “MFI (specific MFI ratio, sample/no-ligand)” value was determined as 4.8 ratio.
Same read-out and setting: the result for B9 reads 2.9 ratio; that for B10, 6.5 ratio; that for B11, 4.7 ratio.
Same read-out and setting: the result for B12 reads 3.4 ratio; that for B13, 2.5 ratio.

The target in a further assay is T1, αvβ6 integrin. Kind of assay: flow cytometry, Cy5-polymer conjugate 5 µg/ml, CAPAN-2 cells. For orientation: In flow cytometry, cells or beads pass a laser one at a time.
For Ac-RGDLA[Abu]L, the MFI (specific MFI ratio, sample/no-ligand) was determined as 7.9.
On the same count and under the same terms, the result for Ac-RGDLA[Abu]L[Aib] reads 8.9; that for Ac-RGDLA[Abu]L[Cit][Aib]L, 7.7.
As for Ac-RGDαMeLAAbuLCitAib (peptide), the MFI (specific MFI ratio, sample/no-ligand) was determined as 0.9.
For Ac-RGαMeDLAAbuLCitAib (peptide), the MFI (specific MFI ratio, sample/no-ligand) was 1.

For the origin of these results see patent US20220024975A1 (ARROWHEAD PHARMACEUTICALS, published 2022).
